# Reference: the supplement of paper PMC10567573
# B1: PPEF2 (parent)
# chain: AFKAAALIQRWYRRYVARLEMRRR
# B2: CLINT1 (parent)
# chain: VVTSAREHIYDLRSLENYHFVDEH
# Variants of: B1
# Test: protein stability index of a GFP-peptide fusion (GPS, HEK-293T) (PSI 1-6); higher = more stable
# Settings: c terminus: a fixed tail appended
# 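Note: lentivirally expressed fusions sorted by FACS into six bins by GFP to DsRed ratio, PSI derived from sequencing read proportions per bin multiplied by bin number.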
row,Variant,protein stability index
1,E20S,3.65
2,E20T,2.65
3,E20V,2.32
4,E20W,4.21
5,E20Y,3.25
6,M21A,2.44
7,M21C,3.34
8,M21D,2.98
9,M21E,4.73
10,M21F,3.32
11,M21H,3.83
12,M21I,3.54
13,M21K,2.69
14,M21L,3.39
15,M21N,3.3
16,M21P,2.18
17,M21Q,4.15
18,M21R,2.36
19,M21S,2.11
20,M21T,3.06
21,M21V,3.7
22,M21Y,3.42
23,R22C,2.01

row,Variant,protein stability index
1,R22D,2.24
2,R22F,2.32
3,R22I,1.89
4,R22L,3.12
5,R22M,1.75
6,R22N,3.83
7,R22P,1.52
8,R22Q,2.74
9,R22S,2.68
10,R22T,3.82
11,R22V,1.66
12,R22W,2.52
13,R22Y,2.42
14,R23A,2.81
15,R23C,3.14
16,R23E,2.44
17,R23G,2.61
18,R23H,2.26
19,R23I,2.13
20,R23K,3.58
21,R23L,2.48
22,R23M,1.94
23,R23P,2.36

row,Variant,protein stability index
1,R23S,1.65
2,R23T,2.25
3,R23W,1.98
4,R23Y,1.58
5,R24A,3.72
6,R24C,1.97
7,R24E,3
8,R24F,1.81
9,R24G,3.09
10,R24H,3.78
11,R24K,2.75
12,R24L,2.9
13,R24M,2.45
14,R24N,3.62
15,R24P,2.39
16,R24Q,3.32
17,R24S,2.63
18,R24T,2.48
19,R24V,2.34
20,R24W,1.99
21,R24Y,2.87

# Variants of: B2
# Test: as above
# Settings: c terminus: a fixed tail appended
row,Variant,protein stability index
1,V1A,3.89
2,V1C,2.54
3,V1D,4.06
4,V1E,3.96
5,V1F,1.79
6,V1G,3.67
7,V1H,3.35
8,V1I,2.67
9,V1K,3.45
10,V1L,2.62
11,V1M,2.88
12,V1N,3.8
13,V1P,3.5
14,V1Q,3.5
15,V1R,2.92
16,V1S,3.68
17,V1T,3.63
18,V1W,2.47
19,V1Y,1.5
20,V2A,3.34
21,V2C,2.9
22,V2D,4.26
23,V2E,3.67
24,V2F,2.56
25,V2G,3.34

row,Variant,protein stability index
1,V2H,3.44
2,V2I,2.3
3,V2K,3.01
4,V2L,3.23
5,V2M,3.2
6,V2N,3.62
7,V2P,4.19
8,V2Q,3.53
9,V2R,3.13
10,V2S,3.12
11,V2T,3.24
12,V2W,2.38
13,V2Y,2.67
14,T3A,2.62
15,T3C,2.29
16,T3D,3.52
17,T3E,3.84
18,T3F,1.98
19,T3G,3.78
20,T3H,2.48
21,T3I,2.04
22,T3K,3.11
23,T3L,2.32
24,T3M,2.1
25,T3N,2.8

row,Variant,protein stability index
1,T3P,2.99
2,T3Q,3.25
3,T3R,3.09
4,T3S,2.89
5,T3V,2.07
6,T3W,2.31
7,T3Y,2.24
8,S4A,2.41
9,S4C,1.64
10,S4D,3.82
11,S4E,3.04
12,S4F,2.03
13,S4G,2.73
14,S4H,2.82
15,S4I,2.1
16,S4K,2.52
17,S4L,1.95
18,S4M,2.24
19,S4N,2.84
20,S4P,3.4
21,S4Q,2.91
22,S4R,2.65
23,S4T,3.18
24,S4V,2.47
25,S4W,2.48

row,Variant,protein stability index
1,S4Y,1.48
2,A5C,2.08
3,A5D,3.53
4,A5E,3.81
5,A5F,2.53
6,A5G,3.15
7,A5H,2.83
8,A5I,3.23
9,A5K,2.36
10,A5L,1.97
11,A5M,2.57
12,A5N,2.92
13,A5P,3.35
14,A5Q,3.71
15,A5R,2.67
16,A5S,3.15
17,A5T,2.98
18,A5V,2.24
19,A5W,2.16
20,A5Y,2.24
21,R6A,2.45
22,R6C,2.91
23,R6D,3.63
24,R6E,3.87
25,R6F,1.55

row,Variant,protein stability index
1,R6G,3.04
2,R6H,3.07
3,R6I,1.84
4,R6K,3.48
5,R6L,1.75
6,R6M,2.33
7,R6N,3.14
8,R6P,3.08
9,R6Q,3.4
10,R6S,3.93
11,R6T,2.75
12,R6V,2.31
13,R6W,3.17
14,R6Y,2.35
15,E7A,2.41
16,E7C,1.86
17,E7D,2.29
18,E7F,1.9
19,E7G,1.73
20,E7H,2.17
21,E7K,2.77
22,E7L,2.3
23,E7M,1.39
24,E7N,2.64
25,E7P,2.44

row,Variant,protein stability index
1,E7Q,1.85
2,E7R,2.07
3,E7S,2.4
4,E7T,2.73
5,E7V,2.26
6,E7W,2.44
7,E7Y,2.57
8,H8A,2.52
9,H8C,2.1
10,H8D,3.48
11,H8E,2.99
12,H8F,1.9
13,H8G,3.13
14,H8I,2.65
15,H8K,2.45
16,H8L,2.29
17,H8M,2.33
18,H8N,2.83
19,H8P,3.21
20,H8Q,3.16
21,H8R,2.61
22,H8S,3.31
23,H8T,2.91
24,H8V,2.22
25,H8W,2.12

row,Variant,protein stability index
1,H8Y,1.89
2,I9A,2.98
3,I9C,2.83
4,I9D,3.54
5,I9E,3.62
6,I9F,2.61
7,I9G,3.83
8,I9H,3.24
9,I9K,3.48
10,I9L,2.83
11,I9M,3.06
12,I9N,4.5
13,I9P,3.59
14,I9Q,4.09
15,I9R,3.66
16,I9S,4.07
17,I9T,3.31
18,I9V,3.16
19,I9W,2.21
20,I9Y,2.15
21,Y10A,3.84
22,Y10C,3.66
23,Y10D,3.94
24,Y10E,4.17
25,Y10F,2.42

row,Variant,protein stability index
1,Y10G,3.91
2,Y10H,2.9
3,Y10I,2.32
4,Y10K,3.64
5,Y10L,2.71
6,Y10M,3.01
7,Y10N,3.71
8,Y10P,4.21
9,Y10Q,3.75
10,Y10R,3.78
11,Y10S,3.37
12,Y10T,3.8
13,Y10V,2.67
14,Y10W,2.06
15,D11A,2.79
16,D11C,2.4
17,D11E,2.38
18,D11F,1.25
19,D11G,2.61
20,D11H,2.3
21,D11I,2.83
22,D11K,2.13
23,D11L,2.44
24,D11M,2.62
25,D11N,2.63

row,Variant,protein stability index
1,D11P,2.56
2,D11Q,2.54
3,D11R,2.62
4,D11S,2.64
5,D11T,2.17
6,D11V,2.89
7,D11W,2.13
8,D11Y,2.02
9,L12A,3.42
10,L12C,2.61
11,L12D,4.08
12,L12E,4.03
13,L12F,2.61
14,L12G,3.78
15,L12H,3.32
16,L12I,2.89
17,L12K,3.78
18,L12M,3.39
19,L12N,3.78
20,L12P,3.21
21,L12Q,4.09
22,L12R,3.6
23,L12S,3.13
24,L12T,3.99
25,L12V,2.7

row,Variant,protein stability index
1,L12W,2.7
2,L12Y,2.4
3,R13A,3.55
4,R13C,2.38
5,R13D,3.59
6,R13E,3.73
7,R13F,1.73
8,R13G,2.7
9,R13H,2.67
10,R13I,2.49
11,R13K,3.45
12,R13L,1.97
13,R13M,2.9
14,R13N,3.35
15,R13P,3.58
16,R13Q,3.06
17,R13S,3.18
18,R13T,3.35
19,R13V,2.86
20,R13W,2.08
21,R13Y,1.95
22,S14A,3.52
23,S14C,2.24
24,S14D,3.24
25,S14E,2.87

row,Variant,protein stability index
1,S14F,2.57
2,S14G,3.45
3,S14H,2.25
4,S14I,2.15
5,S14K,2.69
6,S14L,2.72
7,S14M,2.49
8,S14N,3.07
9,S14P,2.24
10,S14Q,2.31
11,S14R,2.44
12,S14T,2.63
13,S14V,2.11
14,S14W,2.2
15,S14Y,2.02
16,L15A,3.32
17,L15C,3.05
